According to US20110038917A1, “THERAPEUTIC COMPOSITIONS AND METHODS FOR TREATING GRAM-NEGATIVE BACTERIAL INFECTIONS” (RQ Bioscience, Inc., priority 2007, published 2011):

Details: human, in vivo
Protocol: The patient dissolved varying amounts of grape seed powder containing 20% (w/w) of oligomeric proanthocyanidin (OPC) in 37% alcohol/water to produce solutions having OPC concentrations of 1,000 mg/ml, 2,000 mg/ml and 4,000 mg/ml. Each of the solutions were filtered the resulting filtrate then diluted 1:1 with water to produce solutions having final concentrations of 500 mg OPC/l, 1,000 mg OPC/l and 2,000 mg OPC/l. They loaded 3 ml of the 500 mg OPC/l solution into an inhaler and self-administered the solution to their lungs two to three times/day for a few days. […] They performed the same experiment with each of the higher concentration OPC solutions. […] The patient then prepared a solution of bovine apolactoferrin. The lactoferrin was manufactured by Life Extension as a solid in a capsule. The patient broke open capsules and dissolved the lactoferrin therein in 18.5% alcohol/water to final concentrations ranging from 1 g lactoferrin/l to 4.5 g lactoferrin/l. […] The patient reported a relief from all signs of their infection, including coughing, for 4 to 5 hours following administration of the lactoferrin. After that time, their condition began to return to the pre-treatment state. […] It is theorized that this may have been due to a build-up in the patient's lungs of contaminants present in the OPC/lactoferrin preparation that could not be removed by filtration prior to administration. […]

B1: lactoferrin: bovine apolactoferrin manufactured by Life Extension as a solid in a capsule, dissolved in 18.5% alcohol/water (protein, UniProt P24627 20-708, looked up)
Lactotransferrin: APRKNVRWCTISQPEWFKCRRWQWRMKKLGAPSITCVRRAFALECIRAIAEKKADAVTLDGGMVFEAGRDPYKLRPVAAEIYGTKESPQTHYYAVAVVKKGSNFQLDQLQGRKSCHTGLGRSAGWIIPMGILRPYLSWTESLEPLQGAVAKFFSASCVPCIDRQAYPNLCQLCKGEGENQCACSSREPYFGYSGAFKCLQDGAGDVAFVKETTVFENLPEKADRDQYELLCLNNSRAPVDAFKECHLAQVPSHAVVARSVDGKEDLIWKLLSKAQEKFGKNKSRSFQLFGSPPGQRDLLFKDSALGFLRIPSKVDSALYLGSRYLTTLKNLRETAEEVKARYTRVVWCAVGPEEQKKCQQWSQQSGQNVTCATASTTDDCIVLVLKGEADALNLDGGYIYTAGKCGLVPVLAENRKSSKHSSLDCVLRPTEGYLAVAVVKKANEGLTWNSLKDKKSCHTAVDRTAGWNIPMGLIVNQTGSCAFDEFFSQSCAPGADPKSRLCALCAGDDQGLDKCVPNSKEKYYGYTGAFRCLAEDVGDVAFVKNDTVWENTNGESTADWAKNLNREDFRLLCLDGTRKPVTEAQSCHLAVAPNHAVVSRSDRAAHVKQVLLHQQALFGKNGKNCPDKFCLFKSETKNLLFNDNTECLAKLGGRPTYEEYLGTEYVTAIANLKKCSTSPLLEACAFLTR
modifications: apo form
notes: bovine apolactoferrin manufactured by Life Extension as a solid in a capsule, dissolved in 18.5% alcohol/water
  side effects on inhalation: no immediate deleterious side effects
